# From patent US20250304644A1, “PEPTIDES TRIPLE AGONISTS OF GIP, GLP-1 AND GLP-2” (BAINAN BIOTECH APS, priority 2021, published 2025)
# Where no end group is shown, it is not given here. [ ]: non-standard residue; d: D form. The star is where a group is joined. Decanoyl = CCCCCCCCCC(=O)*; Aib = CC(C)(N)C(=O)O
# T1: human GIPR (glucose-dependent insulinotropic polypeptide receptor) (human, UniProt P48546 22-466)
# T1 sequence (looked up): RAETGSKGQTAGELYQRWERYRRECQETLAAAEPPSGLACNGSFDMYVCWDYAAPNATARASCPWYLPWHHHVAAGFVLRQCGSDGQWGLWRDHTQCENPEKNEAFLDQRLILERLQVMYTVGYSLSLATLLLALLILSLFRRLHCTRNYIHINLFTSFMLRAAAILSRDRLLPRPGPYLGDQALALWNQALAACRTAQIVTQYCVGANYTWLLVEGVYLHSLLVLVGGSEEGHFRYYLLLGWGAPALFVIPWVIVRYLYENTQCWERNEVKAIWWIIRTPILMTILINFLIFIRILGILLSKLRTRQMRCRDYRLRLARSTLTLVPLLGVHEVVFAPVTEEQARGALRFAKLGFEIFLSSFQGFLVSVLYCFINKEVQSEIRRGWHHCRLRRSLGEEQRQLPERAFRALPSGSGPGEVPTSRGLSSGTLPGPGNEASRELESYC
# T2: human GLP-2R (glucagon-like peptide-2 receptor) (human, UniProt O95838 1-553)
# T2 sequence (looked up): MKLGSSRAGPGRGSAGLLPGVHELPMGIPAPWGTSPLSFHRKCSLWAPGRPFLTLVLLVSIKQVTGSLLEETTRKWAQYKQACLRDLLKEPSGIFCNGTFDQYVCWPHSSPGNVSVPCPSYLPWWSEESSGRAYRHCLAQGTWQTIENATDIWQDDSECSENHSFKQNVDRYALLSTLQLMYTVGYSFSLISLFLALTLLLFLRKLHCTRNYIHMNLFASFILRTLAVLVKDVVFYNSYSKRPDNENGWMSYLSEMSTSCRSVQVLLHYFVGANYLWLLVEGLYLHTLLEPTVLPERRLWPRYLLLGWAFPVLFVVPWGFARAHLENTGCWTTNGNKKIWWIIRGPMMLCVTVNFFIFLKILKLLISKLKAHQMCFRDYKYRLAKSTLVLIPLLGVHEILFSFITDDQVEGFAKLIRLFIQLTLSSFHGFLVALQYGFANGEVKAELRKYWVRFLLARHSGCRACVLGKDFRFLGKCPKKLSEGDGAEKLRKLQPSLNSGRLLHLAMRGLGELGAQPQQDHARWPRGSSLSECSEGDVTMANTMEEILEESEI
# B1: Compound 4 (peptide)
# peptide: H[Aib]DGTFISDYSTILDLLAARDFINWLIQTKITK(Decanoyl)-NH2
# modifications: N-terminus assumed
# SMILES: CCCCCCCCCC(=O)NCCCC[C@H](NC(=O)[C@@H](NC(=O)[C@@H](NC(=O)[C@H](CCCCN)NC(=O)[C@@H](NC(=O)[C@H](CCC(N)=O)NC(=O)[C@@H](NC(=O)[C@H](CC(C)C)NC(=O)[C@H](Cc1c[nH]c2ccccc12)NC(=O)[C@H](CC(N)=O)NC(=O)[C@@H](NC(=O)[C@H](Cc1ccccc1)NC(=O)[C@H](CC(=O)O)NC(=O)[C@H](CCCNC(=N)N)NC(=O)[C@H](C)NC(=O)[C@H](C)NC(=O)[C@H](CC(C)C)NC(=O)[C@H](CC(C)C)NC(=O)[C@H](CC(=O)O)NC(=O)[C@H](CC(C)C)NC(=O)[C@@H](NC(=O)[C@@H](NC(=O)[C@H](CO)NC(=O)[C@H](Cc1ccc(O)cc1)NC(=O)[C@H](CC(=O)O)NC(=O)[C@H](CO)NC(=O)[C@@H](NC(=O)[C@H](Cc1ccccc1)NC(=O)[C@@H](NC(=O)CNC(=O)[C@H](CC(=O)O)NC(=O)C(C)(C)NC(=O)[C@@H](N)Cc1c[nH]cn1)[C@@H](C)O)[C@@H](C)CC)[C@@H](C)O)[C@@H](C)CC)[C@@H](C)CC)[C@@H](C)CC)[C@@H](C)O)[C@@H](C)CC)[C@@H](C)O)C(N)=O
# B2: Compound 2 (peptide)
# peptide: HXDGTFISDYSTILDNLAARDFINWLIQTKITK
# modifications: Aib at position 2; K33 acylated with C10, K(C10); C-terminus -OH
# B3: Compound 3 (peptide)
# peptide: H[Aib]DGTFISDYATILDNLAARDFINWLIQTKITK(Decanoyl)-OH
# modifications: N-terminus assumed
# SMILES: CCCCCCCCCC(=O)NCCCC[C@H](NC(=O)[C@@H](NC(=O)[C@@H](NC(=O)[C@H](CCCCN)NC(=O)[C@@H](NC(=O)[C@H](CCC(N)=O)NC(=O)[C@@H](NC(=O)[C@H](CC(C)C)NC(=O)[C@H](Cc1c[nH]c2ccccc12)NC(=O)[C@H](CC(N)=O)NC(=O)[C@@H](NC(=O)[C@H](Cc1ccccc1)NC(=O)[C@H](CC(=O)O)NC(=O)[C@H](CCCNC(=N)N)NC(=O)[C@H](C)NC(=O)[C@H](C)NC(=O)[C@H](CC(C)C)NC(=O)[C@H](CC(N)=O)NC(=O)[C@H](CC(=O)O)NC(=O)[C@H](CC(C)C)NC(=O)[C@@H](NC(=O)[C@@H](NC(=O)[C@H](C)NC(=O)[C@H](Cc1ccc(O)cc1)NC(=O)[C@H](CC(=O)O)NC(=O)[C@H](CO)NC(=O)[C@@H](NC(=O)[C@H](Cc1ccccc1)NC(=O)[C@@H](NC(=O)CNC(=O)[C@H](CC(=O)O)NC(=O)C(C)(C)NC(=O)[C@@H](N)Cc1c[nH]cn1)[C@@H](C)O)[C@@H](C)CC)[C@@H](C)O)[C@@H](C)CC)[C@@H](C)CC)[C@@H](C)CC)[C@@H](C)O)[C@@H](C)CC)[C@@H](C)O)C(=O)O
# B4: Compound 7 (peptide)
# peptide: H-H[Aib]DGTFISDYSTILENLAARDFINWLIQTKITK(Decanoyl)-NH2
# SMILES: CCCCCCCCCC(=O)NCCCC[C@H](NC(=O)[C@@H](NC(=O)[C@@H](NC(=O)[C@H](CCCCN)NC(=O)[C@@H](NC(=O)[C@H](CCC(N)=O)NC(=O)[C@@H](NC(=O)[C@H](CC(C)C)NC(=O)[C@H](Cc1c[nH]c2ccccc12)NC(=O)[C@H](CC(N)=O)NC(=O)[C@@H](NC(=O)[C@H](Cc1ccccc1)NC(=O)[C@H](CC(=O)O)NC(=O)[C@H](CCCNC(=N)N)NC(=O)[C@H](C)NC(=O)[C@H](C)NC(=O)[C@H](CC(C)C)NC(=O)[C@H](CC(N)=O)NC(=O)[C@H](CCC(=O)O)NC(=O)[C@H](CC(C)C)NC(=O)[C@@H](NC(=O)[C@@H](NC(=O)[C@H](CO)NC(=O)[C@H](Cc1ccc(O)cc1)NC(=O)[C@H](CC(=O)O)NC(=O)[C@H](CO)NC(=O)[C@@H](NC(=O)[C@H](Cc1ccccc1)NC(=O)[C@@H](NC(=O)CNC(=O)[C@H](CC(=O)O)NC(=O)C(C)(C)NC(=O)[C@@H](N)Cc1c[nH]cn1)[C@@H](C)O)[C@@H](C)CC)[C@@H](C)O)[C@@H](C)CC)[C@@H](C)CC)[C@@H](C)CC)[C@@H](C)O)[C@@H](C)CC)[C@@H](C)O)C(N)=O
# B5: Compound 8 (peptide)
# peptide: H-H[Aib]DGTFISDYSTILDNLAAREFINWLIQTKITK(Decanoyl)-NH2
# SMILES: CCCCCCCCCC(=O)NCCCC[C@H](NC(=O)[C@@H](NC(=O)[C@@H](NC(=O)[C@H](CCCCN)NC(=O)[C@@H](NC(=O)[C@H](CCC(N)=O)NC(=O)[C@@H](NC(=O)[C@H](CC(C)C)NC(=O)[C@H](Cc1c[nH]c2ccccc12)NC(=O)[C@H](CC(N)=O)NC(=O)[C@@H](NC(=O)[C@H](Cc1ccccc1)NC(=O)[C@H](CCC(=O)O)NC(=O)[C@H](CCCNC(=N)N)NC(=O)[C@H](C)NC(=O)[C@H](C)NC(=O)[C@H](CC(C)C)NC(=O)[C@H](CC(N)=O)NC(=O)[C@H](CC(=O)O)NC(=O)[C@H](CC(C)C)NC(=O)[C@@H](NC(=O)[C@@H](NC(=O)[C@H](CO)NC(=O)[C@H](Cc1ccc(O)cc1)NC(=O)[C@H](CC(=O)O)NC(=O)[C@H](CO)NC(=O)[C@@H](NC(=O)[C@H](Cc1ccccc1)NC(=O)[C@@H](NC(=O)CNC(=O)[C@H](CC(=O)O)NC(=O)C(C)(C)NC(=O)[C@@H](N)Cc1c[nH]cn1)[C@@H](C)O)[C@@H](C)CC)[C@@H](C)O)[C@@H](C)CC)[C@@H](C)CC)[C@@H](C)CC)[C@@H](C)O)[C@@H](C)CC)[C@@H](C)O)C(N)=O
# B6: Compound 15 (peptide)
# peptide: H[Aib]DGTFISDYSTILDNIAARDFINWLIQTKITK(Decanoyl)-NH2
# modifications: N-terminus assumed
# SMILES: CCCCCCCCCC(=O)NCCCC[C@H](NC(=O)[C@@H](NC(=O)[C@@H](NC(=O)[C@H](CCCCN)NC(=O)[C@@H](NC(=O)[C@H](CCC(N)=O)NC(=O)[C@@H](NC(=O)[C@H](CC(C)C)NC(=O)[C@H](Cc1c[nH]c2ccccc12)NC(=O)[C@H](CC(N)=O)NC(=O)[C@@H](NC(=O)[C@H](Cc1ccccc1)NC(=O)[C@H](CC(=O)O)NC(=O)[C@H](CCCNC(=N)N)NC(=O)[C@H](C)NC(=O)[C@H](C)NC(=O)[C@@H](NC(=O)[C@H](CC(N)=O)NC(=O)[C@H](CC(=O)O)NC(=O)[C@H](CC(C)C)NC(=O)[C@@H](NC(=O)[C@@H](NC(=O)[C@H](CO)NC(=O)[C@H](Cc1ccc(O)cc1)NC(=O)[C@H](CC(=O)O)NC(=O)[C@H](CO)NC(=O)[C@@H](NC(=O)[C@H](Cc1ccccc1)NC(=O)[C@@H](NC(=O)CNC(=O)[C@H](CC(=O)O)NC(=O)C(C)(C)NC(=O)[C@@H](N)Cc1c[nH]cn1)[C@@H](C)O)[C@@H](C)CC)[C@@H](C)O)[C@@H](C)CC)[C@@H](C)CC)[C@@H](C)CC)[C@@H](C)CC)[C@@H](C)O)[C@@H](C)CC)[C@@H](C)O)C(N)=O
# Biological target: T1, human GIPR (glucose-dependent …)
# Experiment: cell-based or functional assay
EC50 (nM) GIPR [nM],Efficacy GIPR,pEC50 GIPR,Binder
1.12,102,9,B1
,99,,B2
,80,9.2,B3
0.794,96,9.1,B4
1.12,99,9,B5
0.794,98,9.1,B6

# Biological target: human GLP-1R (glucagon-like peptide-1 receptor) (human, UniProt P43220 24-463)
# Experiment: cell-based or functional assay
EC50 (nM) GLP-1R [nM],Efficacy GLP-1R,logEC50 GLP-1R,Binder
25.1,82,7.6,B1
,84,,B2
1.78,94,8.8,B3
2.24,98,8.7,B5
4.73,90,8.3,B6

# Biological target: T2, human GLP-2R (glucagon-like peptide-2 …)
# Experiment: cell-based or functional assay
EC50 (nM) GLP-2R [nM],Efficacy GLP-2R,logEC50 GLP-2R,Binder
28.2,92,7.6,B1
,105,,B2
2.8,101,8.6,B3
12.6,97,7.9,B4
